The values that follow come from patent US8008547B2, “Glyphosate-N-acetyltransferase (GAT) genes” (E.I. duPont de Nemours, priority 2000, dated 2011).

The test system of series [1] is Nicotiana tabacum L. Xanthi leaf explants. Nature of the series: Tobacco shoot regeneration with glyphosate selection. Format: cell-based. The settings on record: explants lacking a GAT gene. The source says:
Agrobacterium-mediated transformation of plant cells occurs at low efficiencies. To allow propagation of transformed cells while inhibiting proliferation of non-transformed cells, a selectable marker is needed. Antibiotic markers for kanamycin and hygromycin and the herbicide modifying gene bar, which detoxifies the herbicidal compound phosphinothricin, are examples of selectable markers used in plants (Methods in Molecular Biology, 1995, 49:9-18). […] An evolved GAT gene (0—5B8), SEQ ID NO: 190, was cloned between a plant promoter (enhanced strawberry vein banded virus) and a […] terminator and introduced into the T-DNA region of the binary vector pMAXY3793 suitable for transformation of plant cells via Agrobacterium tumefaciens EHA105 as shown in FIG. 12. A screenable GUS marker was present in the T-DNA to allow confirmation of transformation. Transgenic tobacco shoots were generated using glyphosate as the only selecting agent.
Axillary buds of Nicotiana tabacum L. Xanthi were subcultured on half-strength MS medium with sucrose (1.5%) and Gelrite (0.3%) under 16-h light (35-42 μEinsteins m^−2 s^−1, cool white fluorescent lamps) at 24° C. every 2-3 weeks. Young leaves were excised from plants after 2-3 weeks subculture and were cut into 3×3 mm segments. A. tumefaciens EHA105 was inoculated into LB medium and grown overnight to a density of A600=1.0. […]

A further series relates to tobacco plants. Nature of the series: Herbicide spray tests of GAT expressing tobacco plants. Type of series: in vivo, Nicotiana tabacum. Here is the method: Tobacco shoots generated as described in EXAMPLE 9 were excised from the explants and transferred to basal root induction (BRI) medium composed of half-strength Murashige and Skoog (MS) medium, pH 5.7, with 1.5% sucrose, 0.3% Gelrite, 0-200 uM glyphosate and 400 ug/ml Timentin. Rooted plants and axillary shoots were clonally propagated by cutting the stem and transferring it to fresh BRI medium until the desired number of clones was obtained. Rooted plants were carefully removed from the solid medium. Prior to placing the plants into small pots of soil, the roots were washed to remove any remaining Gelrite. A protective plastic cover was kept over the plants for at least one week until the plants were well established.
To determine if GAT expressing tobacco plants could tolerate simulated field rate sprays of glyphosate, clonal lines of several events per GAT variant were tested. A typical test was set up as follows: One clone from each event was sprayed with 1 ml of solution containing the isopropylamine salt of glyphosate (Sigma P5671) and 0.125% Triton X-100, pH 6.8 such that the amount of active ingredient sprayed was equivalent to that present in commercial glyphosate products. For example, to achieve 32 oz/acre (1×) of herbicide containing 40% active ingredient (“ai”), 2.4 ul of 40% ai formulation was diluted into 1 ml water and sprayed on a plant in a 4-inch square pot (16 in^2). A mock application (0×) with surfactant only was also included. In some cases a second spray was applied 1-4 weeks later. Plants were kept in controlled growth rooms at 25° C. and 70% humidity with 16 hr light.
Seed-grown wild type plants were also sprayed. […] All 0× plants were healthy, including the non-GAT control plants. Three weeks later all of the surviving plants were sprayed with an 8× dose.

The nature of series [2]: GAT activity (acetylation of glyphosate), general statements. Format: biochemical. The following applies: native YitI of Bacillus subtilis. The source says: As used herein, the term “glyphosate-N-acetyltransferase activity” or “GAT activity” refers to the ability to catalyze the acetylation of the secondary amine group of glyphosate, as illustrated, for example, in FIG. 1. A “glyphosate-N-acetyltransferase” or “GAT” is an enzyme that catalyzes the acetylation of the amine group of glyphosate, a glyphosate analog, and/or a glyphosate primary metabolite (i.e., AMPA or sarcosine). In some preferred embodiments of the invention, a GAT is able to transfer the acetyl group from Acetyl CoA to the secondary amine of glyphosate and the primary amine of AMPA. […] The exemplary GATs described herein are active from pH 5-9, with optimal activity in the range of pH 6.5-8.0. Activity can be quantified using various kinetic parameters which are well known in the art, e.g., kcat, KM, and kcat/KM. These kinetic parameters can be determined as described below in Example 7.

The subject of the next series is yeast strain YPH499. The series is described as follows: Glyphosate selection of transformed yeast cells. Format: cell-based, Saccharomyces cerevisiae. The settings on record: CSM-YNB-glucose medium lacking aromatic amino acids with added glyphosate. The source says:
Selection markers for yeast transformation are usually auxotrophic genes that allow growth of transformed cells on a medium lacking the specific amino acid or nucleotide. Because Saccharomyces cerevisiae is sensitive to glyphosate, GAT can also be used as a selectable marker. […] This plasmid contains an E. coli origin of replication and a gene conferring carbenicillin resistance as well as a TRP1, tryptophan auxotroph selectable marker for yeast transformation.
The GAT containing construct is transformed into E. coli XL1 Blue (Statagene) and plated on LB carbenicillin (50 ug/ml) agar medium. Plasmid DNA is prepared and used to transform yeast strain YPH499 (Stratagene) using a transformation kit (Bio 101). Equal amounts of transformed cells are plated on CSM-YNB-glucose medium (Bio 101) lacking all aromatic amino acids (tryptophan, tyrosine, and phenylalanine) with added glyphosate. For comparison, p424TEF lacking the GAT gene is also introduced into YPH499 and plated as described. […] The presence of the GAT containing vector in glyphosate selected colonies can be confirmed by re-isolation of the plasmid and restriction digest analysis.

On to `O=C(O)CNCP(=O)(O)O` [glyphosate, N-phosphonomethylglycine], for which, in series [1], the “glyphosate concentration that completely inhibited any shoot formation” value is reported as “greater than 20 uM”. Besides, the “plant response two weeks after glyphosate spray” value in the series with tobacco plants (0.5, 2 or 4× glyphosate, vector only and seed grown wild type tobacco) is “stopped growing, wilted, and turned brown”. Also, the “plant response after 8× dose” value with tobacco plants (8× glyphosate, non-GAT 0× control tobacco plants) is on record as “died within two weeks”.

B1: YitI: most closely related sequence available in Genbank, yitI from Bacillus subtilis (protein, UniProt O06744 1-149, looked up)
Uncharacterized …: MLEVKTISVEDTYEIRHRILRPHQSIEQCKYKEDHAEGSFHLGVFYDGTLISIASFSPQSQPLLTEASAYRLRGMATLEGYRDQKAGSTLIKHAEHKLAESGVQAVWCNARHHVKGYYAKLGWKELGEPFDIPGIGNHIVMYKTLRTSR
As to B1, the GAT activity result in series [2] is on record as “detectable GAT activity”.

B2: SEQ ID NO: 196: evolved GAT gene (nucleic acid)
DNA: ATGCTAGAGGTGAAACCGATTAACGCAGAGGATACCTATGAACTAAGGCATAAAATACTCAGACCAAACCAGCCGTTAGAAGTGTGTATGTATGAAACCGATTTACTTCGTGGTGCATTTCACTTAGGCGGCTTTTACAGGGGCAAACTGATTTCCATAGCTTCATTCCACCAGGCCGAGCACTCAGACCTCCAAGGCCAGAAACAGTACCAGCTCCGAGGTATGGCTACCTTGGAAGGTTATCGTGATCAGAAAGCGGGATCGAGTCTAATTAGACACGCTGAACAAATTCTTCGTAAGAGGGGGGCGGACATGCTTTGGTGCAATGCGCGGACATCCGCCTCAGGCTACTACAAAAAGTTAGGCTTCAGCGAGCAGGGAGAGGTATTTGAAACGCCGCCAGTAGGACCTCACATCCTGATGTATAAAAGGCTCACA
modifications: Synthetic DNA Sequence; 0_6D10
notes: evolved GAT gene
Take B2: in the series on tobacco plants (0.5, 2 or 4× glyphosate (1× = 32 oz/acre of 40% ai), transgenic GAT tobacco), the “plant response two weeks after glyphosate spray” value is listed as “survived the spraying procedure without signs of glyphosate damage”. Further, the “survival after second spray” value in the series on tobacco plants (8× glyphosate dose three weeks later, transgenic GAT tobacco) is “all GAT plants survived”. Further, the “function as selectable marker in yeast” value in the series with yeast strain YPH499 was “efficient selectable marker”.
